Measured values reported in the supplement of paper PMC9732359.
± gives the uncertainty stated by the source.

Test: protein stability index of a GFP-peptide fusion (yeast GPS) (PSI 1-4); higher = more stable; sorted into four equal gates, so the index is relative within each strain
Summary of the method: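 Sequencing reads from sorted gates were used to score each peptide. The library consisted of tiled 17-residue yeast protein peptides fused downstream of GFP on a Cherry-expressing plasmid, pooled and carried in yeast. Mid-log cultures in leucine-free medium were split into four equal gates by GFP/Cherry ratio, and each gate's plasmids were PCR-amplified and Illumina-sequenced. The protein stability index adds up, over all gates, the read frequency multiplied by the gate number.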

| Sequence | protein stability index (doa10∆) | protein stability index (pdr5∆) | protein stability index (san1∆) | protein stability index (ubr1∆) |
| --- | --- | --- | --- | --- |
| EESLTVLNCLRTMYFIL [YJR042W/NUP85] | 2.54 ± 0.11 | 1.83 ± 0.081 | 1.38 ± 0.098 | 1.57 ± 0.068 |
| SNASRRKLINYTKKHLS [RPN4] | 1.73 ± 0.071 | 1.27 ± 0.056 | 1.56 ± 0.097 | 1.34 ± 0.042 |
| NVGELIEKNVMESIGSD [RRP4] | 2.54 ± 0.059 | 3.03 ± 0.075 | 2.62 ± 0.098 | 2.39 ± 0.065 |
| TRPQMPSRTRETATSER [GRR1] | 2.85 ± 0.062 | 3.12 ± 0.06 | 3.03 ± 0.05 | 3.05 ± 0.036 |
| VLVDEIKSQYYSRISKL [YIL149C/MLP2] | 2.41 ± 0.054 | 2.46 ± 0.045 | 2.3 ± 0.058 | 2.29 ± 0.034 |
| LAKAVAATIGANFIFSP [RPT4] | 2.09 ± 0.048 | 1.99 ± 0.042 | 1.72 ± 0.088 | 2.18 ± 0.069 |
| DLQLLYVESDEDDTQIV [IRR1] | 3.32 ± 0.17 | 3.21 ± 0.14 | 3.07 ± 0.084 | 3.16 ± 0.12 |
| KDQLPDLESMGLTQLYK [MED7] | 2.85 ± 0.07 | 3.08 ± 0.071 | 2.87 ± 0.077 | 3.13 ± 0.069 |
| QLNKVVDQLFEKASVLY [RPN6] | 2.55 ± 0.051 | 2.06 ± 0.052 | 2.62 ± 0.05 | 2.43 ± 0.055 |
| ASLQQQQQQDLQQQQQV [SNF6] | 2.66 ± 0.26 | 2.7 ± 0.17 |  | 2.69 ± 0.21 |
| LITTYSKLSKNISFYKL [SIN4] | 2.18 ± 0.16 | 2.47 ± 0.12 | 2.24 ± 0.11 | 2.69 ± 0.072 |
| QIGQVPLAPAPINLPPQ [SNF5] | 2.35 ± 0.08 | 2.47 ± 0.081 | 2.4 ± 0.14 | 2.5 ± 0.079 |
| ISCPLIGVIQLAHYVVT [FAS1] | 1.57 ± 0.072 | 1.2 ± 0.041 | 1.24 ± 0.093 | 1.27 ± 0.042 |
| AKAKRRHTTGTGRMRYL [RPL37A] | 3.14 ± 0.14 | 3.22 ± 0.083 | 2.99 ± 0.16 | 3.62 ± 0.16 |
| PMDAYLKLNHIIANINS [SNU114] | 1.26 ± 0.078 | 2.59 ± 0.085 | 1.97 ± 0.22 | 2.4 ± 0.097 |
| GYYVGYKATATGPKQQE [SCL1] | 3.1 ± 0.12 | 3.2 ± 0.088 | 3.02 ± 0.12 | 3.25 ± 0.14 |
| AVCSTATVVSTNHSAAA [PGD1] | 2.85 ± 0.064 | 3.02 ± 0.077 | 2.59 ± 0.096 | 2.91 ± 0.061 |
| NDTSSGTNAMLPSPESL [SNF5] | 2.73 ± 0.042 | 2.84 ± 0.049 | 2.74 ± 0.035 | 2.8 ± 0.042 |
| QQVPPLPDELTLSYDDI [DLS1] | 2.56 ± 0.045 | 2.83 ± 0.055 | 2.69 ± 0.05 | 2.74 ± 0.039 |
| IERLTKRQFNNSYWLII [ITC1] | 3.01 ± 0.077 | 2.62 ± 0.099 | 2.16 ± 0.097 | 2.13 ± 0.071 |
| LEIDNKDSVTECSKDMK [SIR4] | 3.46 ± 0.14 | 3.53 ± 0.083 | 3.4 ± 0.12 | 3.63 ± 0.066 |
| YDNEKTAELIKELKEKE [PUP2] | 3.27 ± 0.066 | 3.34 ± 0.087 | 3.44 ± 0.094 | 3.31 ± 0.064 |
| ISENTFPNGFKNFENGP [RPC34] | 2.96 ± 0.081 | 3.03 ± 0.069 | 2.91 ± 0.052 | 2.57 ± 0.034 |
| LWRNFCRKLSFSDKVNA [ITC1] | 2.09 ± 0.19 | 1.76 ± 0.2 | 1.14 ± 0.23 | 1.37 ± 0.094 |
| STSFSFNAPATGNGTTT [YOR098C/NUP1] | 2.73 ± 0.042 | 2.97 ± 0.037 | 3.03 ± 0.033 | 3.005 ± 0.028 |
| DQSIASGNTNGAGSAFG [YOR098C/NUP1] | 3.26 ± 0.072 | 2.49 ± 0.06 | 2.44 ± 0.079 | 2.49 ± 0.078 |
